Measurements: article PMC9036094, “Antigen-derived peptides engage the ER stress sensor IRE1α to curb dendritic cell cross-presentation” (The Journal of Cell Biology, 2022)

Legend:
IRE1α LD-Fc = test: Plate-based ovalbumin binding to IRE1α LD-Fc; set-up: species or system human; conditions: LD-Fc 10 μg/ml, 2 h, room temperature; in words
Method: For experiments testing ovalbumin binding, a human LD-Fc was used at indicated concentrations. LD-Fc is comprised of amino acids M1-D443 of IRE1α fused C-terminally to a linker ([…]) followed by the human IgG1 hinge and Fc portion. Ovalbumin (Sigma-Aldrich) was dissolved in sterile PBS and used in native state or denatured as indicated by incubation at 95°C buffer for 10 min.
For plate-based binding experiments, native or heat-denatured ovalbumin at indicated concentrations was bound to a flat-bottom 96-well plate (Corning Inc.) with coating buffer (BioLegend), washed with PBSt, blocked with 1% BSA in PBS, and subsequently incubated with IRE1α LD-Fc (10 μg/ml) in binding buffer composed of PBS with 20 mM Hepes, 100 mM KOAc, and 0.2% tween-20 for 2 h at room temperature. Plates were washed again with PBSt and incubated with an anti-human Fc HRP-conjugated antibody (ab977225; Abcam). Development was performed with 3,3′,5,5′-Tetramethylbenzidine solution and terminated with Stop solution (BioLegend). Readings were taken with a SpectraMax M2 spectrometer (Molecular Devices).

ATF6 in BMDCs = test: ATF6 activation in BMDCs (immunoblot, proteolytic processing); format: cell-based, mouse; conditions: MG132 5 μM or ovalbumin 500 μg/ml, in words
Method: (§1) Figure S1. Antigen pulsing of BMDCs activates IRE1α. (A) BMDCs were treated with MG132 (5 μM) or ovalbumin (500 μg/ml) for indicated time points and analyzed by IB. (B) BMDCs were pulsed with ovalbumin (500 μg/ml) and G9668 (3 μM) for indicated time periods and analyzed by IB. (C) Molecular structure, potency, and kinase selectivity of G9668. (D) Schematic representation of G9668 interaction with 220 kinases at 1 μM. Size and color of circles represent interaction strength. Analysis was conducted by KinomeScan. (E) BMDCs were pulsed for 4 h with APC-tagged ovalbumin or soluble CD4-Fc protein (500 μg/ml) with amiloride (10 μM); uptake of protein was assayed by flow cytometry (n = 3). (F) WT or MyD88 KO Flt3L-derived BMDCs were pulsed with ovalbumin (500 μg/ml) or soluble CD4-Fc protein (500 μg/ml), or treated with LPS (10 μg/ml) for 4 h and analyzed by IB. (G) MEFs and BMDCs were pulsed with ovalbumin or treated with Tg (100 nM) for 4 h and analyzed by IB. Images in A, B, F, and G represent at least two similar experiments, and molecular weights represent kD; E bar graphs represent mean ± SD from three independent biological repeats. Analysis for E was performed using unpaired, two-tailed t test; *, P ≤ 0.05; **, P ≤ 0.01. Source data are available for this figure: SourceData FS1. […]

[1] = test system: PERK (ATF4, CHOP) in BMDCs; test: PERK activation in BMDCs (immunoblot of ATF4 and CHOP); format: cell-based, mouse; conditions: MG132 5 μM or ovalbumin 500 μg/ml, in words
Method: as §1

B1: ovalbumin: classical protein antigen ovalbumin (Sigma-Aldrich) (protein)
chain: MGSIGAASMEFCFDVFKELKVHHANENIFYCPIAIMSALAMVYLGAKDSTRTQINKVVRFDKLPGFGDSIEAQCGTSVNVHSSLRDILNQITKPNDVYSFSLASRLYAEERYPILPEYLQCVKELYRGGLEPINFQTAADQARELINSWVESQTNGIIRNVLQPSSVDSQTAMVLVNAIVFKGLWEKAFKDEDTQAMPFRVTEQESKPVQMMYQIGLFRVASMASEKMKILELPFASGTMSMLVLLPDEVSGLEQLESIINFEKLTEWTSSNVMEERKIKVYLPRMKMEEKYNLTSVLMAMGITDVFSSSANLSGISSAESLKISQAVHAAHAEINEAGREVVGSAEAGVDAASVSEEFRADHPFLFCIKHIATNAVLFFGRCVSP
For B1, which “binding to immobilized IRE1α LD-Fc” value (IRE1α LD-Fc) is on record?
Its value is “little binding over background”.

What about the ATF6 activation (ATF6 in BMDCs) of the same molecule?
The ATF6 activation was “relatively minimal activation”.

What about the PERK activation [1] of the same molecule?
Its PERK activation is “did not show a measurable response”.
